Data on 6 sequences can be found in the Immune Epitope Database (IEDB).

One experiment concerns the target HLA-B*83:01. Briefly: IEDB peptide-MHC binding, purified MHC/competitive/fluorescence; filed as Kd, often an IC50 or EC50 that approximates it; ≥ and ≤ were set here for values at or beyond the usual limits of such assays.
The target of another experiment is HLA-B*15:42. Described as above.
The target in the next experiment is HLA-A*29:02. Described as above.
The next experiment addresses HLA-A*01:01. The description is as above. The settings on record: source organism: Homo sapiens.
A further experiment deals with HLA-B*45:06. The experiment is described as above.
For the next experiment, the target named is HLA-C*04:01. The description is as above. The settings on record: source organism: Homo sapiens.
For experiment [1], the target named is HLA-C*06:02. Briefly: IEDB peptide-MHC binding, purified MHC/direct/fluorescence; filed as Kd, often an IC50 or EC50 that approximates it; ≥ and ≤ were set here for values at or beyond the usual limits of such assays. The settings on record: source organism: Homo sapiens.
The next experiment addresses HLA-C*07:02. Described as above.
A further experiment addresses HLA-C*12:03. Described as above.
The next experiment addresses HLA-B*27:05. Briefly: IEDB peptide-MHC binding, purified MHC/competitive/fluorescence; ≥ and ≤ were set here for values at or beyond the usual limits of such assays. The settings on record: source organism: hepatitis C virus genotype 1a.
For the next experiment, the target named is HLA-A*68:23. Briefly: IEDB peptide-MHC binding, purified MHC/competitive/fluorescence; filed as Kd, often an IC50 or EC50 that approximates it; ≥ and ≤ were set here for values at or beyond the usual limits of such assays.
The target in a further experiment is HLA-B*27:20. Described as above. The settings on record: source organism: Cryptosporidium parvum Iowa II.
For another experiment, the target named is HLA-A*32:07. Described as above. The settings on record: source organism: Cryptosporidium parvum Iowa II.
The target in a further experiment is HLA-B*40:13. Described as above.
The target in the next experiment is HLA-A*69:01. The experiment is described as follows: IEDB peptide-MHC binding, purified MHC/direct/fluorescence; filed as Kd, often an IC50 or EC50 that approximates it; ≥ and ≤ were set here for values at or beyond the usual limits of such assays. The settings on record: source organism: Cryptosporidium parvum.
A further experiment addresses HLA-A*02:01. The experiment is described as above. The settings on record: source organism: Cryptosporidium parvum.
In the next experiment the target is HLA-C*14:02. Briefly: IEDB peptide-MHC binding, purified MHC/competitive/fluorescence; filed as Kd, often an IC50 or EC50 that approximates it; ≥ and ≤ were set here for values at or beyond the usual limits of such assays.
In another experiment the target is HLA-A*32:15. The description is as above. The settings on record: source organism: Salmonella enterica subsp. arizonae serovar 62:z4,z23:-.
Another experiment has as its target HLA-C*15:02. Briefly: IEDB peptide-MHC binding, purified MHC/direct/fluorescence; filed as Kd, often an IC50 or EC50 that approximates it; ≥ and ≤ were set here for values at or beyond the usual limits of such assays. The settings on record: source organism: Salmonella enterica subsp. arizonae serovar 62:z4,z23:-.
Experiment [2] concerns the target HLA-C*06:02. The experiment is described as follows: IEDB peptide-MHC binding, purified MHC/competitive/fluorescence; filed as Kd, often an IC50 or EC50 that approximates it; ≥ and ≤ were set here for values at or beyond the usual limits of such assays. The settings on record: source organism: Homo sapiens.
The target of a further experiment is HLA-B*46:01. Briefly: IEDB peptide-MHC binding, cellular MHC/competitive/fluorescence; ≥ and ≤ were set here for values at or beyond the usual limits of such assays. The settings on record: source organism: Human herpesvirus 4 strain B95-8.
Where [3] appears, read: source organism: Cryptosporidium parvum Iowa II.
Where [4] appears, read: source organism: Salmonella enterica subsp. arizonae serovar 62:z4,z23:-.

For orientation: Kd means the free concentration of one partner at which half of the binding sites on the other are occupied at equilibrium, for simple one-to-one binding. Take YYWPRPRRY: the Kd with HLA-B*83:01 (source organism: Homo sapiens) is at least 5000 nM; with HLA-B*15:42 (source organism: Homo sapiens), at least 5000 nM; in the experiment with HLA-A*29:02 (source organism: Homo sapiens), at most 0.1 nM; with HLA-A*01:01 it was at least 20000 nM; in the experiment with HLA-B*45:06 (source organism: Homo sapiens), at least 5000 nM; with HLA-C*04:01 it was at least 5000 nM. In addition, the Kd with HLA-C*06:02 [1] was 14 nM; with HLA-C*07:02 (source organism: Homo sapiens), at most 1 nM; in the experiment with HLA-C*12:03 (source organism: Homo sapiens), 283 nM.
What is called IC50 is the concentration needed to halve the response being measured. A low value points to inhibition by little substance. GGATICGKY: the IC50 with HLA-B*27:05 was at least 750000 nM.
As to MQFPGSVGF, the Kd in the experiment with HLA-A*68:23 (setting [3]) was 42.4 nM; in the experiment with HLA-B*27:20, 0.8 nM; in the experiment with HLA-B*83:01 (setting [3]), at least 5000 nM; with HLA-A*32:07 it was 1.2 nM; in the experiment with HLA-B*15:42 (setting [3]) it was at least 5000 nM; with HLA-B*45:06 (setting [3]) it was at least 5000 nM. Also, the dissociation constant (Kd) with HLA-B*40:13 (setting [3]) came to 0.9 nM; in the experiment with HLA-A*69:01, 3640 nM; in the experiment with HLA-C*07:02 (setting [3]), 429 nM; with HLA-A*02:01 it was 769 nM.
For YTIYGAWMF, the Kd with HLA-A*68:23 (setting [4]) is 0.6 nM; in the experiment with HLA-B*83:01 (setting [4]), at least 5000 nM; with HLA-B*15:42 (setting [4]) it was at least 5000 nM; with HLA-C*14:02 (setting [4]) it was 347 nM; in the experiment with HLA-A*29:02 (setting [4]), 0.6 nM; with HLA-B*45:06 (setting [4]), at least 5000 nM. Also, the Kd stood at 79.6 nM with HLA-A*32:15, 397 nM in the experiment with HLA-B*40:13 (setting [4]), 1730 nM in the experiment with HLA-C*15:02 and 1200 nM with HLA-C*12:03 (setting [4]).
As to VMAPRTLIL, the equilibrium dissociation constant (Kd) was 3790 nM with HLA-C*06:02 [2]; at least 5000 nM with HLA-B*83:01 (source organism: Homo sapiens); at least 5000 nM with HLA-B*15:42 (source organism: Homo sapiens); 208 nM with HLA-C*14:02 (source organism: Homo sapiens); at least 5000 nM in the experiment with HLA-B*45:06 (source organism: Homo sapiens); 397 nM with HLA-C*12:03 (source organism: Homo sapiens).
The sequence FTYPVLEEM displayed an IC50 with HLA-B*46:01 of 10000 nM.
